# Laboratory results from PMC7087056 (The Yale Journal of Biology and Medicine, 2020).
# T1: His6-K10^C401A-2B (human keratin 10 helix 2B domain with C401A, His6 tag kept) (human, UniProt P13645 337-456, C401A)
# T1 sequence (looked up): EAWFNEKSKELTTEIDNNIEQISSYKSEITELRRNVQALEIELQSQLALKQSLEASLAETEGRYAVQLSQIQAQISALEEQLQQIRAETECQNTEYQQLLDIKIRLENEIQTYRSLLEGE
# Target: T1, His6-K10^C401A-2B (human keratin 10 …)
# Assay: pull-down
binder,measurement,value
"human keratin 1 helix 2B domain (K1-2B) (domain or fragment, UniProt P04264 370-489, looked up) ESLYQSKYEELQITAGRHGDSVRNSKIEISELNRVIQRLRSEIDNVKKQISNLQQSISDAEQRGENALKDAKNKLNDLEDALQQAKEDLARLLRDYQELMNTKLALDLEIATYRTLLEGE",stoichiometry N,1
